First the molecules themselves.
B1: 11E8 scFv (scFv, V domains shown)
VH: EVQLQQSGPELMKTGASVKISCKATGYTFSSYWIEWVKQRPGHGLEWIGDILPGSGTTNYNEKFKGRATVTADRSSNTAYMQLSSLTYGDSAVYYCATWGWDTYWDQGTSVTVSS
VL: DIVMTQSPSSLSASLGDRVTISCSASQGISNYLNWYQQKPDGTVKLLIYYTSSLHSGVPSRFSGSGSGTDYSLTISNLEPEDIATYYCQQYSNLPYTFGGGTKLEIK
B2: 14E5Mut65 scFv (scFv, V domains shown)
VH: QVQLQQSGAELMKPGASVKISCKATGYSFSTNWIEWIKQRPGHGLEWIGHILPGSVITNYNEKFKGKAAITADTSSNTSYMQLSSLTSDDSAVYYCARWGWDSYWGQGTLVTVSS
VL: B1 VL with V3K, Y91F
B3: 4F1 scFv (scFv, V domains shown)
VH: QVQLQQSGAELVRPGTSVKVSCKASGYAFTNYLIEWVKQRPGQGLEWIGVINPGTGGTNYNKKFKVKATLTADKSSSTAYMQLGGLTFDDSAVYFCAREGNARTYYYAMDYWGQGTSVTVSS
VL: DIEMTQTPASLSASVGETVTITCRASENIYSYLVWYQQKQGKSPQVLVYNAKTLAEGVPSRFSGSGSGTQFSLKINSLQPEDFGSYYCQHHNGTPYTFGGGTKLEIK
B4: 6B9 scFv (scFv, V domains shown)
VH: QVQLQQSGAELVRPGTSVKVSCKASGYAFTDYLIEWVKQRPGQGLEWIGVINPETGGTNYNAKFKGKATLTADKSSSSAYMQLSSLTSGDSAVYFCAREAGNYIYAMDYWGQGTSVTVSS
VL: B3 VL with E3Q, T7S, E27V, V46L, Y49H, N92H
B5: 6B9Mut1 scFv (scFv, V domains shown)
VH: B4 VH with K65R
VL: B3 VL with E3V, T7S, E27V, V46L, Y49H, N92H
B6: 14E5 scFv (scFv, V domains shown)
VH: B2 VH with Q1E, S28T, N32Y, D89E
VL: B1 VL with V3E, A25T, G28D, N31S, Y32S, K45T, S53N, N93K
B7: 11E8Mut28 scFv (scFv, V domains shown)
VH: EVQLQQSGPELMKTGASVKISCKATGYTFSSYWIEWVKQRPGHGLEWIGDILPGSGTTNYNEKFKGKAAITADTSSNTSYLQLSSLTSEDSAVYYCARWGWDSYWGQGTLVTVSS
VL: B1 VL with Y91F
B8: 14E5Mut95 scFv (scFv, V domains shown)
VH: B2 VH with Q1E, S7T, S28T, N32Y, A69V, D89E
VL: B1 VL with V3E, N93D
B9: 14E5Mut11 scFv (scFv, V domains shown)
VH: B2 VH with Q1E, S28T, D89E
VL: B1 VL with V3L, N31K
B10: 14E5Mut42 scFv (scFv, V domains shown)
VH: B2 VH with Q1E, Q3P, S28T, N32Y, D89E
VL: B1 VL with S7T, N93D
B11: 14E5Mut83 scFv (scFv, V domains shown)
VH: B2 VH with Q1E, E10V, S28T, N32H, D89E
VL: B1 VL with V3L, N93D
B12: 11E8Mut39 scFv (scFv, V domains shown, part only)
VH: B1 VH with S31T, D50H, I51T, V70I, S75P, A79S, Y94F, Q107H
VL: DIEMTQSPSSLSASLGDRVTISCSTSQDVSSYLNWYQQKPDGTVTLLIYYASNLHSGVPSRFSGSGSGTDYSLAISNLEPEDIATYYCQQYSNLPYTFGGGTKLEIKA
modifications: linker not given; order not stated
B13: 11E8Mut94 scFv (scFv, V domains shown, part only)
VH: B7 VH with K65E, K67R, L81M
VL: DIKMTQTPSSLSASLGDRVTISCSASQGISNYLNWYQQKPDGTVKLLIYYTSSLHSGVPSRFSGSGSGTDYSLTISNLEPEDIATYYCQQYSNLPYTFGGGTKLEIKR
modifications: linker not given; order not stated
B14: 14E5Mut54 scFv (scFv, V domains shown, part only)
VH: B2 VH with Q1E, S28T, D89E
VL: B13 VL with K3V, S22R
modifications: linker not given; order not stated
B15: 14E5Mut68 scFv (scFv, V domains shown, part only)
VH: B7 VH with P9A, T14P, S31T, V37I, K67R, A69T, I70V, T74R, S79A, L81M
VL: B13 VL with T7S, N93E
modifications: linker not given; order not stated

Positions count from the first letter of the chain named.

Chain of integrin αβ8 (αvβ8), form in the assay not stated (UniProt P06756) (chain, as listed by the source, chain 1 of 2): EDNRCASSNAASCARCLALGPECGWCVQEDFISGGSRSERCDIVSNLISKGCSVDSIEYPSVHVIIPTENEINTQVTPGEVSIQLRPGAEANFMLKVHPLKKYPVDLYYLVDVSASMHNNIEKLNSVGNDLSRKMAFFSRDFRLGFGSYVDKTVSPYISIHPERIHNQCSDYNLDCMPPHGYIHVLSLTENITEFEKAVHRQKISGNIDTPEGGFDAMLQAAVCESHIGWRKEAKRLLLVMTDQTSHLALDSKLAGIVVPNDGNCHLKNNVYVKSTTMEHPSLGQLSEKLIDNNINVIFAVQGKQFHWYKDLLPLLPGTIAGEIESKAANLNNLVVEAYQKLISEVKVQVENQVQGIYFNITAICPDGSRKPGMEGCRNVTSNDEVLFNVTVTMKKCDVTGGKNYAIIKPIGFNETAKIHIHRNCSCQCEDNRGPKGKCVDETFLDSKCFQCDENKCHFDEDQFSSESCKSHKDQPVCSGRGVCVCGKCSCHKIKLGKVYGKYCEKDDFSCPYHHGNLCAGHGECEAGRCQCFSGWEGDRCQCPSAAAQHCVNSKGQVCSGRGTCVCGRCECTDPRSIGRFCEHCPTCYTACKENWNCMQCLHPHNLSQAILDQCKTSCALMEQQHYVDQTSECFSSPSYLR
Chain of integrin αβ8 (αvβ8), form in the assay not stated (UniProt P06756) (P06756 31-992, chain 2 of 2): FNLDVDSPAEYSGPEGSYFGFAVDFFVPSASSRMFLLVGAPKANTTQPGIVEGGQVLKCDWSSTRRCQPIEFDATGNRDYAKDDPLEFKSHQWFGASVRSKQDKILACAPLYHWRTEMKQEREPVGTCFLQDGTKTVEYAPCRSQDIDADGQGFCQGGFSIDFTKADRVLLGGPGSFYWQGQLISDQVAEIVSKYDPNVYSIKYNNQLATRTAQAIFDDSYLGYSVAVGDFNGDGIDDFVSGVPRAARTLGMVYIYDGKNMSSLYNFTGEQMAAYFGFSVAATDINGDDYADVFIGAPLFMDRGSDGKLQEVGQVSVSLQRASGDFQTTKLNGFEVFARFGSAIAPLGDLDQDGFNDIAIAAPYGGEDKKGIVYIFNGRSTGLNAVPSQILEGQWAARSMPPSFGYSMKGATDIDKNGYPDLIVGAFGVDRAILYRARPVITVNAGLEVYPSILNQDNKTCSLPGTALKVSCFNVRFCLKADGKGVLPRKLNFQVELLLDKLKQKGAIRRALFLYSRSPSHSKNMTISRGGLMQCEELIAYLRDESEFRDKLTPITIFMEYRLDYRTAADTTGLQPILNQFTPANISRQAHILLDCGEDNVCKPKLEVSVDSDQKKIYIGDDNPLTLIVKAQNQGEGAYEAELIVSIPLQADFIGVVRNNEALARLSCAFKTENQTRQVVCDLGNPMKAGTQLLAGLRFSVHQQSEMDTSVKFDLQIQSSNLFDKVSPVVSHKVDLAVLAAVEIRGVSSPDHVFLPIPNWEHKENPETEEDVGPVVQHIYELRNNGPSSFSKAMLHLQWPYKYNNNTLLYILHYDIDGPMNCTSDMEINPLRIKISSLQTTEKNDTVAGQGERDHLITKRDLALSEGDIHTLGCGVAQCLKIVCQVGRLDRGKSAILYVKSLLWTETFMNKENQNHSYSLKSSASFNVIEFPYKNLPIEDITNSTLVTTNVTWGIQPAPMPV
Chain of integrin αβ8 (αvβ8), form in the assay not stated (UniProt P06756 31-992) (chain, as listed by the source, chain 1 of 2): as the sequence (chain, as listed by the source, chain 1 of 2) above
Chain of integrin αβ8 (αvβ8), form in the assay not stated (UniProt P06756 31-992) (P06756 31-992, chain 2 of 2): as the sequence (P06756 31-992, chain 2 of 2) above

One test has as its target integrin αβ8 (αvβ8), form in the assay not stated (UniProt P06756 31-992). As to the kind of experiment: affinity determination of scFv; method and antigen form not stated.
What is called Kd is the concentration at which binding is half-saturated. Lower therefore signals tighter binding. B1 gave a Kd of over 250 nM.

Molecule B2 gave a Kd of 3.04 nM.

Take B3: the Kd is over 100 nM.

For B4, the Kd stood at 14.8 nM.

The molecule B5 returned a Kd of 9.34 nM.

The molecule B6 displayed a Kd of 14 nM.

B7 returned a dissociation constant Kd of 3.52 nM.

B8 displayed a Kd of 1.83 nM.

The molecule B9 returned a Kd of 3.85 nM.

Regarding B10, the Kd was determined as 3.35 nM.

B11 gave a Kd of 1.79 nM.

Another test has as its target integrin αβ8 (αvβ8), form in the assay not stated (UniProt P06756). The test is described as above.
In turn, B12 returned a Kd of 21.1 nM.

The molecule B13 came in with a Kd of 3.2 nM.

B14: the Kd amounted to 2.09 nM.

In turn, B15 came in with a Kd of 1.42 nM.
